The values that follow are results of earlier work, collected in article PMC4623992.

By Kd is commonly meant the equilibrium constant for the complex coming apart.

The target in this data set is TLR4 (Homo sapiens) (UniProt O00206).
Chain of UniProt O00206 (O00206 24-631): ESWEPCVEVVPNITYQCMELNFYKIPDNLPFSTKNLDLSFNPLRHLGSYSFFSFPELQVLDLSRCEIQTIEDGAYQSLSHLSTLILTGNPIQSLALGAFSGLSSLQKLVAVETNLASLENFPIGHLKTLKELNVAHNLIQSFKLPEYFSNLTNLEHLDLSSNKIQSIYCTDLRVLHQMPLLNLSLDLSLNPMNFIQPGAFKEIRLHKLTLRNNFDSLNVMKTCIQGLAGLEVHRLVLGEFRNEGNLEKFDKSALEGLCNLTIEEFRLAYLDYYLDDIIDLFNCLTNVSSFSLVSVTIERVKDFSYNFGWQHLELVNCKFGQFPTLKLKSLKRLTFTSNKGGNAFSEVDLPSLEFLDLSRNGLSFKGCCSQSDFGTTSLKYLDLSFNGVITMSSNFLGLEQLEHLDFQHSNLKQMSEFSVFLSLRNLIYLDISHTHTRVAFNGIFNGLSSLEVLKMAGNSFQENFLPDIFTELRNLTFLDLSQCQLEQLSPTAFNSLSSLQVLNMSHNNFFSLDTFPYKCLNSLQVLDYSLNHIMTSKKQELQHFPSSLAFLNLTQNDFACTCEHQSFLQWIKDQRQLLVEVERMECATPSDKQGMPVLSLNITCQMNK

For MD-2 (from UniProt Q9Y6Y9), the Kd is 0.012 µM.
